The source of these data is patent US20130019345A1 (NATIONAL UNIVERSITY CORPORATION NARA INSTITUTE OF SCIENCE …, published 2013).

Where a chain is given by its changes, count along the chain named. Names and notes keep the numbering of the source. Where no end group is shown, it is not given here. [ ]: non-standard residue; d: D form. pS = N[C@@H](COP(=O)(O)O)C(=O)O

The target in experiment [1] is 14-3-3 protein (endogenous rice OsGF14; isoform not specified). As to the kind of experiment: cell-based or functional assay.
Experiment [2] concerns the target T1, OsGF14b (Os04g0462500), full-length, yeast two-hybrid fusion (rice, UniProt Q7XTE8 1-262).
T1 construct: not shown: two-hybrid fusion partner encoded by pBTM116-GW or pVP16-GW
T1 sequence: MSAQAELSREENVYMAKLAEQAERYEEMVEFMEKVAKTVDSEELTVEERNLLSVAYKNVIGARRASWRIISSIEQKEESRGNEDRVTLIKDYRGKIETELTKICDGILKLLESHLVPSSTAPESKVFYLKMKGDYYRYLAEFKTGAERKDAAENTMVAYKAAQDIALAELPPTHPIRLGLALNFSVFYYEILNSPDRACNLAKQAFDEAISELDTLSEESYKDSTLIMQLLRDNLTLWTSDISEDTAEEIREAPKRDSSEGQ
Kind of experiment: yeast two-hybrid, growth on selective medium. The procedure:
(§1) For an interaction assay, pBTM116 and pVP16 were converted to pBTM116-GW and pVP16-GW, respectively, using a Gateway vector conversion system (Invitrogen) according to the manufacturer's instructions. Yeast cells were grown at 30° C. for 5 days using an SC medium (without uracil, tryptophan, leucine, and histidine), the medium containing added histidine or 1 to 10 mM 3-aminotriazole (+His or +3-AT). The concentration of 3-AT was determined by a bait-prey combination.
(§2) Various mutant proteins were produced by constructing plasmids as described below. […] The PCR-amplified fragments were cloned into a pENTR/D-TOPO cloning vector (Invitrogen) to obtain entry clones.

Experiment [3] has as its target T2, OsGF14b mutant F206A, yeast two-hybrid fusion (rice, UniProt Q7XTE8 1-262).
T2 construct: not shown: yeast two-hybrid fusion partner encoded by pBTM116-GW or pVP16-GW, and its linker
T2 sequence: T1 sequence with F206A
Kind of experiment: yeast two-hybrid, growth on selective medium. The procedure:
as §1, §2

Experiment [4] addresses T3, OsGF14b mutant I210A, yeast two-hybrid fusion (rice, UniProt Q7XTE8 1-262).
T3 construct: not shown: yeast two-hybrid fusion partner encoded by pBTM116-GW or pVP16-GW, and its linker
T3 sequence: T1 sequence with I210A
Kind of experiment: yeast two-hybrid, growth on selective medium. On the procedure: as §1, §2

Experiment [5] addresses T4, OsGF14b mutant E218A, yeast two-hybrid fusion (rice, UniProt Q7XTE8 1-262).
T4 construct: not shown: yeast two-hybrid fusion partner encoded by pBTM116-GW or pVP16-GW, and its linker
T4 sequence: T1 sequence with E218A
As to the kind of experiment: yeast two-hybrid, growth on selective medium. The procedure:
as §1, §2

In experiment [6] the target is T5, OsGF14b mutant Y221A, yeast two-hybrid fusion (rice, UniProt Q7XTE8 1-262).
T5 construct: not shown: two-hybrid fusion partner encoded by pBTM116-GW or pVP16-GW
T5 sequence: T1 sequence with Y221A
As to the kind of experiment: yeast two-hybrid, growth on selective medium. The procedure:
as §1, §2

In experiment [7] the target is T6, OsGF14b mutant R232A, yeast two-hybrid fusion (rice, UniProt Q7XTE8 1-262).
T6 construct: not shown: two-hybrid fusion partner encoded by pBTM116-GW or pVP16-GW
T6 sequence: T1 sequence with R232A
Kind of experiment: yeast two-hybrid, growth on selective medium. The procedure:
as §1, §2

Experiment [8] deals with T7, OsGF14b mutant D233A, yeast two-hybrid fusion (rice, UniProt Q7XTE8 1-262).
T7 construct: not shown: two-hybrid fusion partner encoded by pBTM116-GW or pVP16-GW
T7 sequence: T1 sequence with D233A
As to the kind of experiment: yeast two-hybrid, growth on selective medium. On the procedure:
as §1, §2

The target of experiment [9] is T8, GF14b, full-length, Vn- or Vc-tagged (BiFC) (rice, UniProt Q7XTE8 1-262).
T8 construct: it is put first only for listing; also called OsGF14b; not shown: Vn or Vc fragment of Venus (BiFC tag), at the N- or C-terminal
T8 sequence: T1 sequence
As to the kind of experiment: BiFC (Venus) in rice Oc protoplasts. The procedure:
(§3) (1) The transformation of rice Oc protoplasts was performed by a method described in Kyozuka and Shimamoto 1991, Plant J. 6, 271 (1994), Non Patent Literature 1, or the like. Fluorescent protein expression vectors having introduced therein various proteins were introduced into a protoplast suspension (2×10⁷ protoplasts/ml) by a PEG method (PEG-mediated method). After incubation at 30° C. for 24 hours, transformed protoplasts were obtained and used for microscopic observation.
(§4) Therefore, the number of cells showing higher values than the above-mentioned values was scored.

In experiment [10] the target is T9, Hd3a, full-length, Vn- or Vc-tagged (BiFC) (rice, UniProt Q93WI9 1-179).
T9 construct: it is put first only for listing; not shown: Vn or Vc fragment of Venus (BiFC tag), at the N- or C-terminal
T9 sequence (Q93WI9 whole entry, the tested form may be a part): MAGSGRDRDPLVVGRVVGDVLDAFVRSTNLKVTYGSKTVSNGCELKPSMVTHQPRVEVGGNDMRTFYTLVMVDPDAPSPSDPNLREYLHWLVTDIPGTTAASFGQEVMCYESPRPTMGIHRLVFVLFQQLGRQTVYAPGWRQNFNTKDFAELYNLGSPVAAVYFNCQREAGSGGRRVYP
Kind of experiment: BiFC (Venus) in rice Oc protoplasts (endogenous 14-3-3 proteins present). On the procedure:
as §3, §4

Experiment [11] has as its target T10, GST-fused Hd3a protein (full-length Hd3a) (rice, UniProt Q93WI9 1-179).
T10 construct: also called GST-Hd3a; not shown: GST (glutathione S-transferase) fusion partner
Kind of experiment: in vitro GST pull-down, GST-Hd3a on glutathione resin, SDS-PAGE. On the procedure: After that, the resin was washed with a phosphate buffer (pH 6.8) containing 50 mM KCl and 1 mM DTT to remove a free GST-fused protein unbound to the resin. The isolated and purified GST protein bound to the resin was used as a negative control. […] After that, the resins were washed with a phosphate buffer (pH 6.8) containing 50 mM KCl and 1 mM DTT to remove a free GST-GF14c polypeptide unbound to the resins. Each of the bound proteins was eluted with a phosphate buffer (pH 6.8) containing 50 mM glutathione, 50 mM KCl, and 1 mM DTT and confirmed by SDS polyacrylamide electrophoresis.

For experiment [12], the target named is T11, GF14c residues 1 to 235 (crystallization construct) (rice, UniProt Q6ZKC0 1-235).
T11 construct: Expressed in E. coli and purified; co-crystallized with Hd3a 6-170; also called 14-3-3 protein
T11 sequence: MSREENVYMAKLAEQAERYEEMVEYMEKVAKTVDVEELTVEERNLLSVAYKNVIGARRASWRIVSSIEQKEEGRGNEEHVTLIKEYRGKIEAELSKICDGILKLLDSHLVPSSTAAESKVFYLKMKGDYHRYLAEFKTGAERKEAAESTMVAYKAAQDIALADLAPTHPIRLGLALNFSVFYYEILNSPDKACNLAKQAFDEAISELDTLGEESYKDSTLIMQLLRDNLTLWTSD
As to the kind of experiment: X-ray crystal structure of the florigen activation complex; peptide soaked into Hd3a-GF14c crystals. On the procedure:
The crystallization of the complex was performed at 4° C. by a sitting drop method using a mixture of 1 μl of the protein solution (protein concentration: 10 mg/mL) and 1 μl of a precipitant solution (0.1 M HEPES (pH 7.5), 0.2 M ammonium sulfate, and 25% PEG 3350).

T10 sequence (Q93WI9 whole entry, the tested form may be a part): as the sequence (Q93WI9 whole entry, the tested form may be a part) above

For “Hd3a(R64G)-GFP (prolC::Hd3a(R64G)::GFP) (from UniProt Q93WI9 1-179)”, the Days to flowering (days) of transgenic rice in experiment [1] was 44.2 days.
Turning to “Hd3a-GFP-fused protein (full-length Hd3a coding region conjugated to GFP) (from UniProt Q93WI9 1-179)”, the Days to flowering (days) of transgenic rice in experiment [1] stood at 19.6 days.
Same read-out and setting: in the case of “Hd3a(R64G/R132A)-GFP (prolC::Hd3a(R64G/R132A)::GFP) (from UniProt Q93WI9 1-179)” it was 58.8 days.

B1: OsFD1 (Os09g0540800), full-length, yeast two-hybrid fusion (other)
chain: MAMEDDEDMWANTSSPSASPPRPRGFISTALSLNSTHLQGLLPSSFVDAAASPCHASGNNNGGGDGRNAAPMSSIFFASASYHQQQHHLPAPAPLDGAILPARRFGLDMCAAAAAAPAGVPAAGDRRKRRMIKNRESAARSRARKQARVNNLETEVEQLKQENKMLRVKYEQLRKTVEVPVPVRRTLQRVLSAPF
notes: not shown: two-hybrid fusion partner encoded by pBTM116-GW or pVP16-GW
Consider B1, for which the binding result in experiment [2], in [3], in experiment [4], in [5], in experiment [6] and in experiment [7] was “binds” in each case. Also, the binding result in [8] was “binds”.

B2: OsFD1, full-length, Vn- or Vc-tagged (BiFC) (other)
chain: B1 chain
notes: it is put first only for listing; not shown: Vn or Vc fragment of Venus (BiFC tag), at the N- or C-terminal
As for B2, the binding result in experiment [9] and in experiment [10] was “binds” each time.

B3: OsFD1 having a mutation of S192E in a region of positions 147 to 195 in SEQ ID NO: 3, not fused with GST (other)
chain: ARVNNLETEVEQLKQENKMLRVKYEQLRKTVEVPVPVRRTLQRVLEAPF
On to B3, for which the binding result in [11] was “no binding”.

B4: OsFD1 polypeptide, residues 187 to 195, chemically synthesized (peptide)
peptide: LQRVL[pS]APF
notes: Soaked at 2 mM into Hd3a-GF14c crystals
As to B4, the binding result in experiment [12] is listed as “binds”.
